The labels stand for the following.
B1: NAD-dependent protein deacetylase sirtuin-1 (Homo sapiens), Q96EB6 (parent)
chain: MADEAALALQPGGSPSAAGADREAASSPAGEPLRKRPRRDGPGLERSPGEPGGAAPEREVPAAARGCPGAAAAALWREAEAEAAAAGGEQEAQATAAAGEGDNGPGLQGPSREPPLADNLYDEDDDDEGEEEEEAAAAAIGYRDNLLFGDEIITNGFHSCESDEEDRASHASSSDWTPRPRIGPYTFVQQHLMIGTDPRTILKDLLPETIPPPELDDMTLWQIVINILSEPPKRKKRKDINTIEDAVKLLQECKKIIVLTGAGVSVSCGIPDFRSRDGIYARLAVDFPDLPDPQAMFDIEYFRKDPRPFFKFAKEIYPGQFQPSLCHKFIALSDKEGKLLRNYTQNIDTLEQVAGIQRIIQCHGSFATASCLICKYKVDCEAVRGDIFNQVVPRCPRCPADEPLAIMKPEIVFFGENLPEQFHRAMKYDKDEVDLLIVIGSSLKVRPVALIPSSIPHEVPQILINREPLPHLHFDVELLGDCDVIINELCHRLGGEYAKLCCNPVKLSEITEKPPRTQKELAYLSELPPTPLHVSEDSSSPERTSPPDSSVIVTLLDQAAKSNDDLDVSESKGCMEEKPQEVQTSRNVESIAEQMENPDLKNVGSSTGEKNERTSVAGTVRKCWPNRVAKEQISRRLDGNQYLFLPPNRYIFHGAEVYSDSEDDVLSSSSCGSNSDSGTCQSPSLEEPMEDESEIEEFYNGLEDEPDVPERAGGAGFGTDGDDQEAINEAISVKQEVTDMNYPSNKS

Results on one variant are retold here after IntAct's records for PubMed 19934257.

Variants of B1 are the subject of the test. The settings on record: with apex1_human APEX1, P27695.
Chain of apex1_human APEX1, P27695 (P27695 whole entry): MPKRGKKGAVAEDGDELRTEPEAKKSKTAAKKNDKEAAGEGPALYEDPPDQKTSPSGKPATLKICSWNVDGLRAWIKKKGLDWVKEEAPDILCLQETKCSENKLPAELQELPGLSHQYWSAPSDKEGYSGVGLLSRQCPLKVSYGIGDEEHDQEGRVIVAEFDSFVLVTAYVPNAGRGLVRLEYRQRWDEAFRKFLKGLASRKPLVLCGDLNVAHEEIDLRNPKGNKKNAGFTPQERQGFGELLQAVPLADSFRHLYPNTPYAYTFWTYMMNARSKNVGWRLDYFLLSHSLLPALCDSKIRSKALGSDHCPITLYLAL
For H363Y, the “effect of a mutation on the interaction” value is recorded as “disrupting interaction”.
